One assay has as its target HLA A6801 (human). Kind of assay: 125I-probe competition, purified HLA.
Another assay has as its target HLA A3301 (human). Kind of assay: 125I-probe competition, purified HLA.
Another assay concerns the target HLA A0301 (human). Kind of assay: 125I-probe competition, purified HLA.
The next assay deals with HLA A3101 (human). Kind of assay: 125I-probe competition, purified HLA.
In a further assay the target is HLA A1101 (human). Briefly: 125I-probe competition, purified HLA.
The target of a further assay is HLA DRB4*0101 (human). Briefly: competition with 125I probe peptide, purified HLA.
For another assay, the target named is HLA DRB1*0301 (human). Kind of assay: competition with 125I probe peptide, purified HLA.
A further assay has as its target HLA DRB1*0401 (human). Kind of assay: competition with 125I probe peptide, purified HLA.
The target in a further assay is HLA DRB1*0405 (human). Kind of assay: competition with 125I probe peptide, purified HLA.
A further assay addresses HLA DRB5*0101 (human). Kind of assay: competition with 125I probe peptide, purified HLA.
A further assay addresses HLA DRB1*0701 (human). Kind of assay: competition with 125I probe peptide, purified HLA.
The target of a further assay is HLA DRB1*0101 (human). Kind of assay: competition with 125I probe peptide, purified HLA.
Another assay has as its target HLA DRB1*0901 (human). Kind of assay: competition with 125I probe peptide, purified HLA.
In a further assay the target is HLA DRB1*0404 (human). Briefly: competition with 125I probe peptide, purified HLA.
In the next assay the target is HLA A0201 (human). Briefly: 125I-probe competition, purified HLA.
The next assay concerns the target HLA A6802 (human). Briefly: 125I-probe competition, purified HLA.
For another assay, the target named is HLA A0203 (human). Kind of assay: 125I-probe competition, purified HLA.
Another assay has as its target HLA A0202 (human). Briefly: 125I-probe competition, purified HLA.
A further assay addresses HLA A0206 (human). Kind of assay: 125I-probe competition, purified HLA.
For a further assay, the target named is HLA A2601 (human). Briefly: 125I-probe competition, purified HLA.
For the next assay, the target named is HLA A3002 (human). Briefly: 125I-probe competition, purified HLA.
A further assay concerns the target HLA A0101 (human). Briefly: 125I-probe competition, purified HLA.
The next assay addresses HLA A2902 (human). Kind of assay: 125I-probe competition, purified HLA.

Consider STAAALYWYR (modifications not checked) [HPV31.E1.294], for which the IC50 with HLA A6801 (human) stood at 0.012 µM; with HLA A3301 (human) it was 0.047 µM; in the assay with HLA A0301 (human) it was 0.198 µM; in the assay with HLA A3101 (human), 0.0056 µM; with HLA A1101 (human), 0.01 µM.
LDLQPETTDLYCYEQ (modifications not checked) [HPV16.E7.13 HTL epitope]: the IC50 is 0.017 µM with HLA DRB4*0101 (human), 0.59 µM with HLA DRB1*0301 (human) and 1.9 µM in the assay with HLA DRB1*0401 (human).
Regarding ISFAGIVTK (modifications not checked) [HPV31.E2.205], the IC50 with HLA A3301 (human) turned out to be 4.37 µM; in the assay with HLA A0301 (human) it was 0.017 µM; with HLA A3101 (human) it was 0.115 µM; in the assay with HLA A1101 (human), 0.0016 µM.
On to NGWFYVEAVIDRQTG (modifications not checked) [HPV31.E1.15 HTL epitope], for which the IC50 turned out to be 0.178 µM with HLA DRB1*0405 (human); 0.627 µM with HLA DRB4*0101 (human); 1.2 µM with HLA DRB5*0101 (human); 2.8 µM with HLA DRB1*0301 (human); 1.46 µM in the assay with HLA DRB1*0701 (human); 1.86 µM with HLA DRB1*0101 (human). The 50% inhibitory concentration (IC50) in the assay with HLA DRB1*0401 (human) was determined as 0.845 µM; in the assay with HLA DRB1*0901 (human), 3.67 µM; with HLA DRB1*0404 (human), 18.8 µM.
Turning to FIYIPLFVI (modifications not checked) [HPV31.E5.66], the IC50 with HLA A0201 (human) was 0.026 µM; in the assay with HLA A6802 (human) it was 0.157 µM; in the assay with HLA A0203 (human), 0.047 µM; with HLA A0202 (human) it was 0.097 µM; with HLA A0206 (human), 0.0081 µM.
For STWHWTGCNK (modifications not checked) [HPV45.E2.322], the IC50 in the assay with HLA A6801 (human) worked out at 0.018 µM; with HLA A3301 (human), 0.428 µM; in the assay with HLA A0301 (human) it was 0.014 µM; in the assay with HLA A3101 (human) it was 0.054 µM; with HLA A1101 (human), 0.0028 µM.
Consider GTLGIVCPV (modifications not checked) [HPV16.E7.85.V9], for which the IC50 with HLA A0201 (human) was determined as 0.02 µM; with HLA A6802 (human), 0.032 µM; with HLA A0203 (human), 0.068 µM; with HLA A0202 (human) it was 0.049 µM; with HLA A0206 (human), 0.033 µM.
With FVYIPLFLI (modifications not checked) [HPV16.E5.66], the IC50 in the assay with HLA A0201 (human) amounted to 0.206 µM; with HLA A6802 (human) it was 0.251 µM; in the assay with HLA A0203 (human), 0.063 µM; with HLA A0202 (human), 0.323 µM; in the assay with HLA A0206 (human), 0.059 µM.
NTGILTVTY (modifications not checked) [HPV45.E2.332]: the IC50 is 3.15 µM with HLA A2601 (human), 8.72 µM in the assay with HLA A3002 (human), 0.337 µM in the assay with HLA A0101 (human) and 1.4 µM in the assay with HLA A2902 (human).
LSQMVQWAY (modifications not checked) [HPV16/31.E1.357]: the IC50 came to 6.45 µM with HLA A2601 (human), 0.00093 µM with HLA A3002 (human), 0.021 µM in the assay with HLA A0101 (human) and 0.122 µM in the assay with HLA A2902 (human).
For the molecule VVLLLVRYK (modifications not checked) [HPV16.E1.274], the IC50 with HLA A6801 (human) stood at 0.076 µM; in the assay with HLA A3301 (human), 0.0061 µM; with HLA A0301 (human), 0.0063 µM; in the assay with HLA A3101 (human), 0.0001 µM; with HLA A1101 (human), 0.0041 µM.
The like results for ATMCRHYKR (modifications not checked) [HPV16.E1.406] were, in that order, 0.035 µM, 0.017 µM, 0.09 µM, 0.01 µM and 0.014 µM.
Turning to YTNWKFIYL (modifications not checked) [HPV31.E2.131], the IC50 with HLA A0201 (human) was found to be 0.069 µM; in the assay with HLA A6802 (human), 0.146 µM; in the assay with HLA A0203 (human), 0.031 µM; in the assay with HLA A0202 (human), 0.014 µM; with HLA A0206 (human), 0.084 µM.
In the case of SVICFVNSK (modifications not checked) [HPV16.E1.497], the IC50 was found to be 0.0054 µM with HLA A6801 (human); 0.051 µM in the assay with HLA A3301 (human); 0.109 µM in the assay with HLA A0301 (human); 0.025 µM in the assay with HLA A3101 (human); 0.0022 µM with HLA A1101 (human).
On to STAAALYWYK (modifications not checked) [HPV16.E1.314], for which the IC50 turned out to be 0.006 µM with HLA A6801 (human); 0.128 µM in the assay with HLA A3301 (human); 0.005 µM with HLA A0301 (human); 0.035 µM in the assay with HLA A3101 (human); 0.002 µM in the assay with HLA A1101 (human).
Regarding VAWDSVYYM (modifications not checked) [HPV18.E2.136], the IC50 was determined as 0.172 µM in the assay with HLA A0201 (human); 5.15 µM with HLA A6802 (human); 1.33 µM with HLA A0203 (human); 0.603 µM with HLA A0202 (human); 0.79 µM with HLA A0206 (human).
The like results for CLYLHIQSL (modifications not checked) [HPV16.E1.259] were, in that order, 0.073 µM, 1.78 µM, 0.021 µM, 0.045 µM and 0.1 µM.
In the same order, the values of TVYVFCFLL (modifications not checked) [HPV18.E5.51] are 0.175 µM, 0.041 µM, 0.769 µM, 0.587 µM and 0.026 µM.
In the same order, the values of YVVWDSIYYI (modifications not checked) [HPV45.E2.137] are 0.077 µM, 0.03 µM, 0.248 µM, 0.027 µM and 0.02 µM.
With KVSEFRWYRY (modifications not checked) [HPV31.E6.72], the IC50 with HLA A6801 (human) came out at 0.192 µM; with HLA A3301 (human), 0.338 µM; with HLA A0301 (human) it was 0.213 µM; with HLA A3101 (human) it was 0.003 µM; in the assay with HLA A1101 (human), 0.025 µM.
In the case of MVMLMLVRFK (modifications not checked) [HPV31.E1.253], the IC50 with HLA A6801 (human) is 0.01 µM; with HLA A3301 (human), 0.02 µM; with HLA A0301 (human), 0.01 µM.
On to FLLCFCVLL (modifications not checked) [HPV31.E5.15], for which the IC50 was 0.0096 µM with HLA A0201 (human); 0.237 µM with HLA A6802 (human); 0.034 µM with HLA A0203 (human); 0.013 µM in the assay with HLA A0202 (human); 0.0026 µM with HLA A0206 (human).
For LSSALEIPY (modifications not checked) [HPV31.E6.15], the IC50 in the assay with HLA A2601 (human) was found to be 4.11 µM; with HLA A3002 (human), 0.175 µM; in the assay with HLA A0101 (human) it was 0.035 µM; with HLA A2902 (human), 0.261 µM.
Turning to TLYAHIQCL (modifications not checked) [HPV45.E1.252], the half-maximal inhibitory concentration (IC50) in the assay with HLA A0201 (human) was 0.034 µM; in the assay with HLA A6802 (human) it was 1.61 µM; in the assay with HLA A0203 (human) it was 0.0062 µM; in the assay with HLA A0202 (human) it was 0.0049 µM; in the assay with HLA A0206 (human), 0.417 µM.
On to GTGCNGWFY (modifications not checked) [HPV18/31.E1.11], for which the IC50 worked out at 3.08 µM with HLA A2601 (human), 0.0091 µM with HLA A3002 (human), 0.136 µM with HLA A0101 (human) and 0.116 µM with HLA A2902 (human).
For AVMCRHYKR (modifications not checked) [HPV45.E1.399], the IC50 is 0.029 µM in the assay with HLA A6801 (human); 0.024 µM in the assay with HLA A3301 (human); 0.311 µM with HLA A0301 (human); 0.052 µM in the assay with HLA A3101 (human); 0.038 µM with HLA A1101 (human).

As usually defined, the IC50 is the midpoint of a concentration-inhibition curve. Lower therefore signals greater potency in that assay.

The values above are taken from US20100272750A1.
